Data from patent US20080262203A1 (published 2008).
“And” between values parts separate entries of the source, which are not always exact repeats. Identical values can stand only once.

Tests used:
human Gro-beta [1] = molecular target: T1, human Gro-beta (human, UniProt P19875 35-107); assay: Biacore SPR, BE: mAb amine-coupled;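 also: analytes IL-8, Gro-b and ENA-78 flowed at defined concentrations over the antibody surface, buffer injection used for double referencing, kinetics fitted to a 1:1 binding model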
T1 construct: also called Gro-β; hGROβ
Method: (§1) For experiment designated BE, purified antibodies directly immobilized to the chip by amine coupling was used.
(§2) Defined concentrations of each analyte (IL8, Gro-band ENA-78) are passed over the immobilized or captured antibody surface, a separate capture event is used for each analyte injection. After each injection of analyte the surface is regenerated by injection
(§3) An injection of buffer is also injected over the antibody captured surface and this is used for double referencing. The data is analyzed using the analysis software inherent to the machine, using the 1:1 model of binding.

human IL-8 [2] = molecular target: T2, human IL-8 (human, UniProt P10145 28-99, limits assumed); assay: Biacore SPR, BE: mAb amine-coupled;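 also: analytes IL-8, Gro-b and ENA-78 flowed at defined concentrations over the antibody surface, buffer injection used for double referencing, kinetics fitted to a 1:1 binding model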
T2 construct: also called hIL-8; hIL8
Method: as §1, §2, §3

human ENA-78 [3] = molecular target: T3, human ENA-78 (human, UniProt P42830 37-114, limits assumed); assay: Biacore SPR, BE: mAb amine-coupled;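 also: analytes IL-8, Gro-b and ENA-78 flowed at defined concentrations over the antibody surface, buffer injection used for double referencing, kinetics fitted to a 1:1 binding model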
T3 construct: also called hENA-78; CXCL5
Method: as §1, §2, §3

human Gro-beta [4] = molecular target: T1, human Gro-beta; assay: Biacore SPR, KL: anti-mouse Fc capture
Method: (§4) Supernatant or purified antibody from parental mouse mAb is captured on the anti-mouse IgG-Fc surface. Defined concentrations of each analyte (IL8, Gro-band ENA-78) are passed over the immobilized or captured antibody surface, a separate capture event is used for each analyte injection. After each injection of analyte the surface is regenerated by injection
as §3

human IL-8 [5] = molecular target: T2, human IL-8; assay: Biacore SPR, KL: anti-mouse Fc capture
Method: as §4, §3

human ENA-78 [6] = molecular target: T3, human ENA-78; assay: Biacore SPR, KL: anti-mouse Fc capture
Method: as §4, §3

human Gro-alpha [7] = molecular target: T4, human Gro-alpha (human, UniProt P09341 35-107); assay: TRFIA, chemokine coated on plate, biotinylated anti-mouse IgG and streptavidin-europium detection
T4 construct: also called Gro-α; hGROα
Method: (§5) Briefly, each antigen (human IL-8, Gro-alpha, Gro-beta, Gro-gamma, GCP-2, and ENA-78, and hIL-18 when used as negative control) is individually coated onto a 96-well immunofluorescent plate. The plates are then washed and blocked with a commercially available blocking solution. Blocking solution is emptied and samples containing the mAb are added into each well and incubated for 40 to 60 minutes (this allows the mAb to bind to the target chemokines). The plates are then washed again and a detection Ab is added to each well. […] The detection antibody is conjugated to either europium or biotin. Following another round of washing, to remove unbound detection Ab, a solution of streptavidin-europium was added to biotin detected assays. Streptavidin-europium binds to the biotin allowing for detection. After a final wash to remove unbound streptavidin-europium, or in the case of the humanized MAb assay after the europium conjugate secondary is washed, each well is filled with a chelating detergent solution to activate the europium producing fluorescence. The greater the fluorescence recorded is directly proportionate to the amount of detection Ab present in the well which is directly linked and proportionate to the amount of the chemokine binding mAb.

human Gro-beta [8] = molecular target: T1, human Gro-beta; assay: as above
Method: as §5

human IL-8 [9] = molecular target: T2, human IL-8; assay: as above
Method: as §5

human Gro-gamma [10] = molecular target: T5, human Gro-gamma (human, UniProt P19876 35-107); assay: as above
T5 construct: also called Gro-γ; CXCL3
Method: as §5

human ENA-78 [11] = molecular target: T3, human ENA-78; assay: as above
Method: as §5

human Gro-alpha [12] = molecular target: T4, human Gro-alpha; assay: TRFIA, chemokine coated on plate, biotinylated anti-human IgG Fab2 reagent and streptavidin-europium detection
Method: as §5

human Gro-beta [13] = molecular target: T1, human Gro-beta; assay: as above
Method: as §5

human IL-8 [14] = molecular target: T2, human IL-8; assay: as above
Method: as §5

human GCP-2 [15] = molecular target: T6, human GCP-2 (human, UniProt P80162 38-114, limits assumed); assay: as above
T6 construct: also called hGCP-2; CXCL6
Method: as §5

human Gro-gamma [16] = molecular target: T5, human Gro-gamma; assay: as above
Method: as §5

human ENA-78 [17] = molecular target: T3, human ENA-78; assay: as above
Method: as §5

hIL-18 = molecular target: T7, hIL-18 (Homo sapiens, UniProt Q14116); assay: TRFIA, hIL-18 coated on plate, biotinylated anti-human IgG Fab2 reagent and streptavidin-europium detection
T7 construct: Printed on the sheets: 'hIL-18 run as a negative control'; also called human IL-18
Method: as §5

human Gro-alpha [18] = molecular target: T4, human Gro-alpha; assay: TRFIA, chemokine coated on plate, europium anti-human IgG detection; antibody concentration not given
human GCP-2 [19] = molecular target: T6, human GCP-2; assay: as above
Method: as §5

human Gro-gamma [20] = molecular target: T5, human Gro-gamma; assay: as above
Method: as §5

human IL-8 [21] = molecular target: T2, human IL-8; assay: Biacore SPR, Protein A capture;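 also: purified antibody captured on Protein A immobilised on a CM5 chip, chemokine analytes flowed over at defined concentrations, buffer injection for double referencing, kinetics fitted with a 1:1 binding model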
From the text: (§6) A Protein A capture method was used to generate kinetics for the humanised and chimeric constructs as follows:
(§7) Protein A is immobilised on a CM5 chip by primary amine coupling in accordance with the manufactures instructions. Purified humanised or chimeric antibody is captured on the Protein A surface. After capture defined concentrations of each analyte (IL8, Gro-β and ENA-78) are passed over the antibody captured surface, a separate capture event is used for each analyte injection. […] An injection of buffer is also injected over the antibody captured surface and this is used for double referencing. The data is analysed using the analysis software inherent to the machine, using the 1:1 model of binding.

human ENA-78 [22] = molecular target: T3, human ENA-78; assay: Biacore SPR, Protein A capture;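 also: purified antibody captured on Protein A immobilised on a CM5 chip, chemokine analytes flowed over at defined concentrations, buffer injection for double referencing, kinetics fitted with a 1:1 binding model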
From the text: as §6, §7

human Gro-beta [23] = molecular target: T1, human Gro-beta; assay: Biacore SPR, KL: anti-mouse Fc capture; KL: anti-mouse Fc capture
Method: as §4, §3

human Gro-beta [24] = molecular target: T1, human Gro-beta; assay: Biacore SPR, BE: mAb amine-coupled; BE: mAb amine-coupled;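 as to Kd: analytes IL-8, Gro-b and ENA-78 flowed at defined concentrations over the antibody surface, buffer injection used for double referencing, kinetics fitted to a 1:1 binding model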
Method: as §1, §2, §3

Kd (human Gro-beta [1]) [nM] | kon (human Gro-beta [1]) [M⁻¹ s⁻¹] | Kd (human IL-8 [2]) [nM] | koff (human IL-8 [2]) [s⁻¹] | kon (human IL-8 [2]) [M⁻¹ s⁻¹] | Kd (human ENA-78 [3]) [nM] | koff (human ENA-78 [3]) [s⁻¹] | kon (human ENA-78 [3]) [M⁻¹ s⁻¹] | Kd (human IL-8 [5]) [nM] | koff (human IL-8 [5]) [s⁻¹] | kon (human IL-8 [5]) [M⁻¹ s⁻¹] | Kd (human ENA-78 [6]) [nM] | koff (human ENA-78 [6]) [s⁻¹] | kon (human ENA-78 [6]) [M⁻¹ s⁻¹] | binding result (human Gro-alpha [18]) | binding result (human GCP-2 [19]) | binding result (human Gro-gamma [20]) | Binder | further results
0.111 | 1.32e+07 | 0.0839 | 0.000687 | 8.19e+06 | 0.271 | 0.000796 | 2.94e+06 | 0.964 | 0.00148 | 1.53e+06 | 1.74 | 0.00187 | 1.07e+06 |  |  |  | mouse monoclonal antibody 656.35 (antibody, IgG2a, V domains shown, Murine hybridoma mAb) VH: QVQLQQSGAELVRPGTSVTISCKASGYTFTNYWIVWVKQRPGHGLEWIGDLYSGGGYTFYSENFKGKATLTADTSSSTAYMHLISLTSEDSAVYFCARSGYDRTWFAHWGQGSLVTVSA VL: DIKMTQSPSSMSASLGERVTITCQASQDIESYLSWYQQKPWKSPKTLIYYATRLADGVPSRFSGSGSGQDYSLTISSLESDDTATYYCLQHGESPPTFGAGTKLELKR | koff (human Gro-beta [1]): 0.00146 s⁻¹; Kd (human Gro-beta [4]): 0.526 nM; koff (human Gro-beta [4]): 0.00201 s⁻¹; kon (human Gro-beta [4]): 3.82e+06 M⁻¹ s⁻¹; EC50 (read off the curve) (human Gro-alpha [7]): ~0.03 µg/mL; EC50 (read off the curve) (human Gro-beta [8]): ~0.02 µg/mL; EC50 (read off the curve) (human IL-8 [9]): ~0.03 µg/mL; EC50 (read off the curve) (human Gro-gamma [10]): ~0.02 µg/mL; EC50 (read off the curve) (human ENA-78 [11]): ~0.02 µg/mL
0.0898 | 5.44e+06 | 55.5 | 0.108 | 1.95e+06 | 0.0239 | 3.94e-06 | 165000 | 4.8 | 0.00932 | 1.95e+06 | 0.616 | 0.000376 | 611000 |  |  |  | mouse monoclonal antibody 81.1 (antibody, IgG2a, V domains shown, Murine hybridoma mAb) VH: EVQLQQSGPELEKPGASVKISCKASGYSFTVYGMNWVRQSNGKSLEWIGNFDPYFSVTSYNQKFQDKATLTVDKSSSTAYMQLKNLTSEDSAVYFCARGSWETIFAYWGQGTLVTVSA VL: QAVVTQESALTTSPGETVTLTCRSSTGAVTTSNYANWVQEKPDHLFTGLIGGTNNRAPGVPARFSGSLIGDKAALTITGAQTEDEAIYFCALWYSNHVFGGGTKLTVLQ | koff (human Gro-beta [1]): 0.000489 s⁻¹; Kd (human Gro-beta [4]): 0.113 nM; koff (human Gro-beta [4]): 0.000312 s⁻¹; kon (human Gro-beta [4]): 2.76e+06 M⁻¹ s⁻¹
< 0.00962 | 1.04e+06 | 0.69 | 0.000499 | 723000 | 10.1 | 0.00302 | 301000 | 5.89 | 0.00369 | 627000 | 9 | 0.00269 | 299000 |  |  |  | mouse monoclonal antibody 197.2 (antibody, IgG2a, V domains shown, Murine hybridoma mAb) VH: EFQLQQSGPELVKPGASVKISCKASGYSFTDYNMNWVKQSNGKSLEWIGVINPKYGTTSYNQKFKGKATLTVDQSSNTAYMQLSSLTSEDSAVYHCARGMGLLFGMDYWGQGTSVTVSS VL: DIVMTQSPSSLSVSAGEKVTMSCKSSQSLLNSGNQKNYLAWYQQKPGQPPKLLIYGASTRKSGVPDRFTGSGSGTDFTLTISSVQAEDLAVYYCQNDHSFPCTFGGGTKLEIKR | Kd (human Gro-beta [23]): 0.639 nM; koff (human Gro-beta [23]): 0.000993 s⁻¹; kon (human Gro-beta [23]): 1.55e+06 M⁻¹ s⁻¹; koff (human Gro-beta [24]): < 1e-05 s⁻¹

Second part, the binder before the results:

Binder | Kd (human Gro-beta [1]) [nM] | kon (human Gro-beta [1]) [M⁻¹ s⁻¹] | Kd (human IL-8 [2]) [nM] | koff (human IL-8 [2]) [s⁻¹] | kon (human IL-8 [2]) [M⁻¹ s⁻¹] | Kd (human ENA-78 [3]) [nM] | koff (human ENA-78 [3]) [s⁻¹] | kon (human ENA-78 [3]) [M⁻¹ s⁻¹] | Kd (human IL-8 [5]) [nM] | koff (human IL-8 [5]) [s⁻¹] | kon (human IL-8 [5]) [M⁻¹ s⁻¹] | Kd (human ENA-78 [6]) [nM] | koff (human ENA-78 [6]) [s⁻¹] | kon (human ENA-78 [6]) [M⁻¹ s⁻¹] | binding result (human Gro-alpha [18]) | binding result (human GCP-2 [19]) | binding result (human Gro-gamma [20]) | further results
Chimera Antibody (HcLc) made from 656.35 (antibody, human IgG1, kappa, V domains shown, also called the Chimera Antibody; chimera (HcLc)) VH: QVQLQQSGAELVRPGTSVTISCKASGYTFTNYWIVWVKQRPGHGLEWIGDLYSGGGYTFYSENFKGKATLTADTSSSTAYMHLISLTSEDSAVYFCARSGYDRTWFAHWGQGSLVTVSS VL: DIKMTQSPSSMSASLGERVTITCQASQDIESYLSWYQQKPWKSPKTLIYYATRLADGVPSRFSGSGSGQDYSLTISSLESDDTATYYCLQHGESPPTFGAGTKLELKR |  |  |  |  |  |  |  |  |  |  |  |  |  |  |  |  |  | EC50 (read off the curve) (human Gro-alpha [12]): ~0.05 µg/mL; EC50 (read off the curve) (human Gro-beta [13]): ~0.04 µg/mL; EC50 (read off the curve) (human IL-8 [14]): ~0.07 µg/mL; EC50 (read off the curve) (human GCP-2 [15]): ~0.04 µg/mL; EC50 (read off the curve) (human Gro-gamma [16]): ~0.04 µg/mL; EC50 (read off the curve) (human ENA-78 [17]): ~0.04 µg/mL; binding result (hIL-18): no binding (tested: 1000 ng/ml)
humanized penta-specific antibody construct H0M0 (antibody, human IgG1, kappa, V domains shown, H0 mature heavy chain with M0 mature light chain) VH: QVQLVQSGAEVKKPGASVKVSCKASGYTFTNYWIVWVRQAPGQGLEWMGDLYSGGGYTFYSENFKGRVTMTRDTSTSTVYMELSSLRSEDTAVYYCARSGYDRTWFAHWGQGTLVTVSS VL: EIVLTQSPATLSLSPGERATLSCQASQDIESYLSWYQQKPGQAPRLLIYYATRLADGIPARFSGSGSGTDFTLTISSLEPEDFAVYYCLQHGESPPTFGQGTKLEIKR |  |  |  |  |  |  |  |  |  |  |  |  |  |  | binds | binds | binds | 
humanized penta-specific antibody construct H0L7 (antibody, human IgG1, kappa, V domains shown, H0 mature heavy chain with L7 mature light chain) VH: QVQLVQSGAEVKKPGASVKVSCKASGYTFTNYWIVWVRQAPGQGLEWMGDLYSGGGYTFYSENFKGRVTMTRDTSTSTVYMELSSLRSEDTAVYYCARSGYDRTWFAHWGQGTLVTVSS VL: DIQMTQSPSSLSASVGDRVTITCQASQDIESYLSWYQQKPGKAPKLLIYYATRLADGVPSRFSGSGSGTDFTLTISSLQPEDFATYYCLQHGESPPTFGQGTKLEIKR |  |  |  |  |  |  |  |  |  |  |  |  |  |  | binds | binds | binds | 
humanized penta-specific antibody construct H0L8 (antibody, human IgG1, kappa, V domains shown, H0 mature heavy chain with L8 mature light chain) VH: QVQLVQSGAEVKKPGASVKVSCKASGYTFTNYWIVWVRQAPGQGLEWMGDLYSGGGYTFYSENFKGRVTMTRDTSTSTVYMELSSLRSEDTAVYYCARSGYDRTWFAHWGQGTLVTVSS VL: DIQMTQSPSSLSASVGDRVTITCQASQDIESYLSWYQQKPGKAPKLLIYYATRLADGVPSRFSGSGSGTDFTFTISSLQPEDIATYYCLQHGESPPTFGQGTKLEIKR |  |  |  |  |  |  |  |  |  |  |  |  |  |  | binds | binds | binds | Kd (human IL-8 [21]): 0.188 nM and 0.143 nM and 0.175 nM and 0.152 nM; koff (human IL-8 [21]): 0.00111 s⁻¹ (2×) and 0.00113 s⁻¹ and 0.00119 s⁻¹; kon (human IL-8 [21]): 5.9e+06 M⁻¹ s⁻¹ and 7.89e+06 M⁻¹ s⁻¹ and 6.8e+06 M⁻¹ s⁻¹ and 7.3e+06 M⁻¹ s⁻¹; Kd (human ENA-78 [22]): 0.1 nM and 0.0941 nM and 0.0912 nM and 0.0755 nM; koff (human ENA-78 [22]): 0.000288 s⁻¹ and 0.000266 s⁻¹ and 0.000269 s⁻¹ and 0.000248 s⁻¹; kon (human ENA-78 [22]): 2.88e+06 M⁻¹ s⁻¹ and 2.82e+06 M⁻¹ s⁻¹ and 2.95e+06 M⁻¹ s⁻¹ and 3.29e+06 M⁻¹ s⁻¹
humanized penta-specific antibody construct H0L10 (antibody, human IgG1, kappa, V domains shown, H0 mature heavy chain with L10 mature light chain) VH: QVQLVQSGAEVKKPGASVKVSCKASGYTFTNYWIVWVRQAPGQGLEWMGDLYSGGGYTFYSENFKGRVTMTRDTSTSTVYMELSSLRSEDTAVYYCARSGYDRTWFAHWGQGTLVTVSS VL: DIQMTQSPSSLSASVGDRVTITCQASQDIESYLSWYQQKPGKAPKLLIYYATRLADGVPSRFSGSGSGQDYTLTISSLQPEDFATYYCLQHGESPPTFGQGTKLEIKR |  |  |  |  |  |  |  |  |  |  |  |  |  |  | binds | binds | binds | Kd (human ENA-78 [22]): 0.0899 nM and 0.0722 nM and 0.0742 nM and 0.0613 nM
